Assay results published in patent publication US11661676B2, “Cellular high throughput encapsulation for screening or selection” (Universität Zürich, priority 2012, dated 2023).

Test: Thermostability assay of ADRA1A derived clones ([3H]prazosin binding after heat challenge)
Type: physicochemical
Conditions: PBS-E(DCC), no ligand during solubilization, even at 20° C.
Method: Detergent-stable ADRA1A library members were selected with FACS using 200 nM BODIPY FL prazosin. (FIG. 8a) 21 selected clones were expressed individually, solubilized and assayed for ligand binding activity after 3 hours in PBS-E(DCC). (FIG. 8b) The top 4 receptors were solubilized in PBS-E(DCC) for 3 h at 20° C. in the absence of ligand. Solubilized receptors were captured from the supernatant with streptavidin paramagnetic beads at 4° C. for 1 h. ADRA1ADCCA3 (black circles), ADRA1ADCCG4 (grey open squares), ADRA1ADCCD7 (black crosses) or ADRA1ADCCD8 (grey open circles) coated beads were either treated with 20 nM [^3H]prazosin for 1 h before being thermally challenged for 30 min at increasing temperatures or […] treated with 20 nM [^3H]prazosin after heating in the absence of ligand. […] Parallel measurements were taken for every receptor in the presence of 10 μM unlabeled prazosin as a competitor to determine the specific […] signal. Data points are plotted as the mean of duplicate measurements, 100% represents the signal measured after heating at 20° C. for 30 min. Error bars indicate the standard error of the mean.
For ADRA1A derived clones, expression and sonication was conducted as above, but the pellet was solubilized in PBS-E(DCC) containing 50 mg/ml chicken lysozyme at 20° C. with vigorous shaking for 3 h in the absence of ligand. […]

B1: wild-type ADRA1A: wild-type alpha 1A adrenergic receptor, parental receptor (protein, UniProt P35348 1-466, looked up)
Alpha-1A adrenergic receptor: MVFLSGNASDSSNCTQPPAPVNISKAILLGVILGGLILFGVLGNILVILSVACHRHLHSVTHYYIVNLAVADLLLTSTVLPFSAIFEVLGYWAFGRVFCNIWAAVDVLCCTASIMGLCIISIDRYIGVSYPLRYPTIVTQRRGLMALLCVWALSLVISIGPLFGWRQPAPEDETICQINEEPGYVLFSALGSFYLPLAIILVMYCRVYVVAKRESRGLKSGLKTDKSDSEQVTLRIHRKNAPAGGSGMASAKTKTHFSVRLLKFSREKKAAKTLGIVVGCFVLCWLPFFLVMPIGSFFPDFKPSETVFKIVFWLGYLNSCINPIIYPCSSQEFKKAFQNVLRIQCLCRKQSSKHALGYTLHPPSQAVEGQHKDMVRIPVGSRETFYRISKTDGVCEWKFFSSMPRGSARITVSKDQSSCTTARVRSKSFLQVCCCVGPSTPSLDKNHQVPTIKVHTISLSENGEEV
  ligand binding signal when solubilized in the absence of ligand: no significant fluorescence signal was obtained
Listed as ADRA1A
  ligand binding signal when solubilized in the absence of ligand: No significant signal could be measured
